Results from paper PMC7919409, “Crystal structures of adenylylated and unadenylylated PII protein GlnK from Corynebacterium glutamicum” (Acta Crystallographica. Section D, Structural Biology, 2021).

Columns and labels:
[1] = target: the molecule itself; test: crystal structure; unGlnK, 2.2 Å, space group P4(3)2(1)2, one trimer per asymmetric unit; sitting drop, 292 K, 2.0 M ammonium sulfate, 5%(v/v) 2-propanol
[2] = target: the molecule itself; test: crystal structure; adGlnK, 1.8 Å, space group P3(2), six chains per asymmetric unit; hanging drop, 292 K, MgCl2, CaCl2, MOPS/HEPES pH 7.1, MPD, PEG 1000, PEG 3350

Protein | stoichiometry N [1] | stoichiometry N [2]
unmodified unadenylylated GlnK from Corynebacterium glutamicum (natural protein, C. glutamicum, not part of GlnK; PII protein GlnK, Corynebacterium glutamicum, UniProt Q79VF2; each subunit spans 112 residues; The His tag was cut off with thrombin; Homotrimer; also called unGlnK; UnGlnK; source: E. coli BL21(DE3), purified (HisTrap FF, thrombin cleavage of the His tag, Superdex 75 size-exclusion chromatography); not shown: His tag, N-terminal, cleaved) SLHACRMKLITAIVKPFTLTDIKDALEQAGVQGMTVTETQGFGQQKGHTEVYRGAEYAVDFVPKVKIEVIISDAQAEEVINIIVETARTGKVGDGKVWMTNIEELVRVRTGERGEAAL | 3 | –
adenylylated GlnK from Corynebacterium glutamicum (natural protein, C. glutamicum, adenylylated Tyr51 (AMP moiety covalently linked to the hydroxyl group of Tyr51); almost fully adenylylated by mass spectrometry, PII protein GlnK, Corynebacterium glutamicum, UniProt Q79VF2; untagged (stop codon inserted before the Xa-Strep stretch of the vector); Homotrimer; also called adGlnK; AdGlnK) MKLITAIVKPFTLTDIKDALEQAGVQGMTVTETQGFGQQKGHTEVYRGAEYAVDFVPKVKIEVIISDAQAEEVINIIVETARTGKVGDGKVWMTNIEELVRVRTGERGEAAL | – | 3
